B1: CCDC70 (parent)
chain: FSFKVSRWMGLACFRSLAASSPSI
B2: FBXO3 (parent)
chain: GGFPIIRDQIFRYVHDPECVATTG

Variants of: B1
Assay: protein stability index of a GFP-peptide fusion (GPS, HEK-293T) (PSI 1-6); higher = more stable
Conditions: c terminus: a fixed tail appended
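Further: lentivirally expressed fusions sorted by FACS into six bins by GFP to DsRed ratio, PSI derived from sequencing read proportions per bin multiplied by bin number.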

Protein stability index of substitutions, site by site:
S16: C 2.56, D 2.86, E 4.34, F 2.55, G 3.37, H 3.13, I 1.98, K 2.18, L 2.13, N 3.94, P 3.05, Q 2.42, R 3.88, W 2.79, Y 3.27
L17: A 1.7, G 3.62, H 2.29, I 1.86, K 2.45, M 2.77, N 2.73, P 3.88, Q 1.83, R 2.19, S 1.87, T 2.3, V 2.84, Y 2.69
A18: D 2.71, E 2.71, F 2.74, H 2.37, K 4.48, L 2.9, M 2.78, R 2.21, S 2.69, T 2.82, V 2.58, W 1.96, Y 3.5
A19: C 1.8, D 2.88, E 3.77, F 1.36, G 2.19, H 2.03, L 3.58, M 3.27, N 3.2, P 2.09, Q 2.32, R 3.39, S 3.28, T 3.93, V 3.78, W 3.71, Y 3.36
S20: A 3.7, C 3.42, D 3.1, F 4.72, G 2.51, H 1.81, I 3.96, K 3.32, L 3.27, M 2.2, N 2.46, P 1.35, R 4.31, T 2.31, V 2.6, W 3.37, Y 2.74
S21: A 1.99, C 2.05, D 2.8, E 3.18, F 3.31, G 2.62, I 3.37, K 2.57, L 3.55, M 3.02, N 2.04, P 3.96, Q 2.23, R 1.75, W 2.85, Y 1.82
P22: A 1.68, C 2.36, D 2.97, E 3.78, F 2.51, H 1.85, K 2.38, M 3.36, N 3.22, Q 3.8, R 2.46, T 3.71, V 2.95, W 3.4, Y 2.86
S23: C 2.6, D 3.88, F 3.09, H 1.65, K 2.68, L 4.22, N 3.56, Q 3.59, T 2.67, V 2.53, Y 2.1
I24: A 2.67, C 1.94, D 2.72, E 1.44, F 2.56, G 2.36, K 2.12, L 3, M 2.23, N 2.33, P 1.41, Q 2.38, S 2.06, W 3.1, Y 3.49

Variants of: B2
Assay: as above
Conditions: c terminus: a fixed tail appended

Protein stability index: each site, then its substitutions
H15: P 2.27, W 1.85
Y13: Q 3.65, H 2.28, A 3.44
P17: S 2.93, I 1.43, D 2.91
I10: M 2.44, P 2.6, F 2.13
D16: T 2.37, W 2.72
Q9: T 1.58, Y 2.13
F3: G 2.55, M 2.1, Q 2.58
E18: L 1.58
I6: Y 1.99, A 2.57
D8: Y 3.32, P 1.27
C19: G 1.73, W 2.15
V20: K 1.27, I 2.19
V14: Y 2.9, M 2.42
G24: I 1.5, Y 1.99
G1: H 2.02
P4: H 2.02, S 2.03
